± gives the uncertainty stated by the source.
Experiment: amyloid nucleation score (Sup35N fusion, yeast selection) (log enrichment); library NNK1; higher = more nucleation; inactive = no reads after selection
Method in brief: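 Yeast lacking psi expressed peptides of 20 random codons fused to Sup35N, received 100 μM copper sulfate for 24 hours, and were then grown for 7 days at 30°C on medium lacking adenine and uracil. Illumina sequencing of input and output plasmid inserts provided the reads. Nucleation scores are DiMSum log enrichments of output over input, centred on the mode of non-aggregating sequences. Any sequence with under 100 input reads was excluded.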

| Substance | amyloid nucleation score |
| --- | --- |
| NYREGVVIILNNPDYCRRER | 6.36 ± 0.091 |
| TACPNSGNFERYGHYRSSSA | 1.12 ± 0.58 |
| YCWFFMLWEYTCWLVF | 0.17 ± 0.28 |
| TVFSSWLTQGSMYV | 1.48 ± 0.44 |
| VLKRLRTYVYSIFW | 0.543 ± 0.33 |
| ERTMGLSVMWAIECCLRNPG | 2.05 ± 0.24 |
| GRFKWCGCNNTLWVGISRN | 1.9 ± 0.15 |
| FKVIYARFVTIWVAVRRAFL | 0.051 ± 0.69 |
| TFTMSWLK | 3.22 ± 0.078 |
| AVWSRRTCWGLRKQSGVVLT | 0.036 ± 0.32 |
| AGLPRSGSIQRDYREKVWAA | -0.194 ± 1.3 |
| LMTLLSSLSPAQSSLPT | 1.27 ± 0.8 |
| AIALQV | -1.18 ± 0.94 |
| NCHVT | -0.271 ± 0.29 |
| FVLQKGYK | 0.2 ± 0.59 |
| DFVMLEV | -0.594 ± 0.68 |
| VSCQQTFASLFFGILAGKSI | -0.006 ± 0.54 |
| DMPFSDFMN | -0.096 ± 0.47 |
| SEMPIFYLWDPQSGQRSWDG | 0.036 ± 0.93 |
| KKPQSGSCTRLSSESYKSVY | 0.464 ± 0.82 |
| SPHSLTFSLMVMVRKKMMRS | 0.012 ± 1.4 |
| YSNIRFSMNIYRTLRDRLGA | 5.12 ± 0.095 |

| Substance | amyloid nucleation score |
| --- | --- |
| KVFGTRPSQCLGFN | -0.806 ± 0.65 |
| KCLTFHVSNVFITANPLCLL | 5.936 ± 0.054 |
| AASKIIENIGHLC | -0.337 ± 0.52 |
| YNGGGSYNWVWMGNSPVKTR | 0.969 ± 0.61 |
| LYQKHWVLSTALE | inactive |
| WRVYQSFGDLAVCTF | 0.326 ± 0.45 |
| EGIHKR | 0.324 ± 0.66 |
| DRWLSM | -0.025 ± 0.51 |
| RHSSYIGMCRT | 1.66 ± 0.56 |
| RGGRRDWLCIFRGRLGVA | -1.08 ± 0.78 |
| SGINLLFVFS | 2.95 ± 0.25 |
| QFSRTRFFICGLGRSAPAVR | 1.53 ± 0.85 |
| ASFSNCWG | 0.486 ± 0.32 |
| CETVG | inactive |
| CFSQVCDKFMMEMMFSCFKV | 0.451 ± 0.24 |
| FWSHHPHTNENMCTYTNLSW | inactive |
| CYSQDRSRLVSEDYY | -0.525 ± 0.34 |
| GQFEFCMFAQYGAS | -1.14 ± 2.4 |
| MKLNGFVWPG | -0.256 ± 0.55 |
| FGCTKANT | -0.657 ± 1.1 |
| VNFFLFRQCKGSFAWNHTVA | 6.336 ± 0.058 |
| LEGKPSEFYRNFHIYGVVYQ | -0.531 ± 1.4 |

| Substance | amyloid nucleation score |
| --- | --- |
| RSSMPRSWAVWPRWE | 0.176 ± 0.71 |
| FYYYSEFLGPIVYPQHDLLL | -0.1 ± 1.1 |
| YLASREDDINMDASLLSTHA | 1.41 ± 0.66 |
| YNVCGELQDNIRCYISLTVL | inactive |
| RRFEWFAGHCGIVDLPLGVG | 0.568 ± 0.97 |
| NTGWDRGHGCSLMFHRVLEW | 2.67 ± 0.13 |
| CFEFDPFMNMVKSCWCCQVA | -0.281 ± 0.93 |
| SLVLVYGFWELYLW | 0.689 ± 0.84 |
| EFGRDNHVLVLWMGRAPSDM | -0.436 ± 0.55 |
| TSPEVLRAIVSTSLFCCILR | -0.724 ± 2.4 |
| LWYCTSSNNCDCSAAIIVNT | 4.19 ± 0.1 |
| MTKFCID | 0.965 ± 0.66 |
| NMIKYVTLKMRL | 0.328 ± 0.6 |
| SDCVVVGHGVVRIYMDGVWP | 5.84 ± 0.065 |
| LRSKFRCLSILVRMVIIDCF | 0.457 ± 0.62 |
| SKSLKYICMYFQHTNSLASI | 0.241 ± 1.2 |
| HRLRLSVVRAIYDTQIHQRA | -0.043 ± 0.34 |
| EFKTDPDYT | 0.2 ± 0.53 |
| PIKEVPNTSRLLFSVCMKWH | 0.504 ± 0.74 |
| FSCCILPCSLSHSMVFLGSG | 8.064 ± 0.08 |
| YDDTTMYRFWLHFKM | 0.638 ± 0.3 |
| RCSNLGFKFWR | -0.332 ± 0.39 |

| Substance | amyloid nucleation score |
| --- | --- |
| SFRCGSNNSIHD | -2.02 ± 1.7 |
| YRGKRDKVVGSMMCMWRT | 0.518 ± 0.52 |
| SIFVG | 0.353 ± 1.2 |
| RVNYIHD | -0.057 ± 0.46 |
| QKRAMYDLGCSFSLFNLCYQ | 5.28 ± 0.062 |
| LFYSNMIVTVSRSVVRMRGA | 0.659 ± 0.79 |
| ISTAVAIAGQQARNWGAHLR | -0.196 ± 0.46 |
| IWVFMVVIMC | 1.07 ± 0.79 |
| NLRQHVYICYNLNGRTHFLW | 6.719 ± 0.047 |
| QVNNPSTWLMRNQIDQKLLR | -1.8 ± 1.7 |
| STPNRLGPMPSWVGSTEAVV | -0.474 ± 1.1 |
| VNWRGNSRVGIRNRFFCHSH | -0.28 ± 0.72 |
| LQGSVIYLNIKSLGEGVWLF | 3.44 ± 0.17 |
| GIMTHVGRPKVTGCGRGKCT | -0.165 ± 1.6 |
| HNLRVIFCY | 0.421 ± 0.58 |
| IATNRGMCLGLRVSGLDMAR | 1.13 ± 0.49 |
| CVIRKSLFKCQFSMIRESWV | 0.298 ± 0.31 |
| GVSSLLGRHRRGVSFEGDSV | -0.65 ± 0.54 |
| ERVLYIGFYTYVDNCFRLLK | -0.12 ± 0.34 |
| CGCCARWNYIIMMGWGGCVL | 0.096 ± 0.69 |

From the supplement of paper PMC12042874
